pKd: −log10 of the molar value.
Key:
HLA-A*01:01 [1] = experiment: IEDB peptide-MHC binding, purified MHC/direct/fluorescence; filed as Kd, often an IC50 or EC50 that approximates it; ≥ and ≤ were set here for values at or beyond the usual limits of such assays
HLA-A*02:01 [2] = experiment: as above
HLA-A*11:01 [3] = experiment: as above
HLA-A*24:03 = experiment: as above; conditions: source organism: Cowpox virus
HLA-A*31:01 = experiment: as above
HLA-A*68:02 [4] = experiment: as above
HLA-A*69:01 [5] = experiment: as above
HLA-B*07:02 = experiment: as above
HLA-B*57:01 [6] = experiment: as above
HLA-B*58:01 = experiment: as above
HLA-A*02:06 = experiment: IEDB peptide-MHC binding, purified MHC/competitive/fluorescence; filed as Kd, often an IC50 or EC50 that approximates it; ≥ and ≤ were set here for values at or beyond the usual limits of such assays
HLA-A*26:02 [7] = experiment: as above
HLA-A*26:03 [8] = experiment: as above; conditions: source organism: Variola virus
HLA-B*15:01 [9] = experiment: as above
HLA-B*15:17 [10] = experiment: as above
HLA-B*18:01 [11] = experiment: as above
HLA-A*26:01 = experiment: IEDB peptide-MHC binding, purified MHC/direct/fluorescence; filed as Kd, often an IC50 or EC50 that approximates it; ≥ and ≤ were set here for values at or beyond the usual limits of such assays
HLA-A*26:02 [12] = experiment: as above
HLA-A*26:03 [13] = experiment: as above
HLA-B*08:02 = experiment: as above
HLA-B*08:03 = experiment: as above
HLA-B*15:17 [14] = experiment: as above; conditions: source organism: Orthomarburgvirus marburgense
HLA-B*18:01 [15] = experiment: as above
HLA-B*27:05 [16] = experiment: as above
HLA-B*40:01 = experiment: as above
HLA-B*44:02 = experiment: as above; conditions: source organism: Orthomarburgvirus marburgense
HLA-B*48:01 = experiment: as above
HLA-B*39:01 = experiment: IEDB peptide-MHC binding, purified MHC/competitive/fluorescence; filed as Kd, often an IC50 or EC50 that approximates it; ≥ and ≤ were set here for values at or beyond the usual limits of such assays; conditions: source organism: Orthomarburgvirus marburgense
HLA-A*01:01 [17] = experiment: as above; conditions: source organism: Human immunodeficiency virus 1
HLA-A*02:03 = experiment: as above; conditions: source organism: Human immunodeficiency virus 1
HLA-A*11:01 [18] = experiment: as above; conditions: source organism: Human immunodeficiency virus 1
HLA-A*30:01 = experiment: as above; conditions: source organism: Human immunodeficiency virus 1
HLA-A*69:01 [19] = experiment: as above; conditions: source organism: Human immunodeficiency virus 1
HLA-A*03:01 = experiment: IEDB peptide-MHC binding, purified MHC/direct/fluorescence; filed as Kd, often an IC50 or EC50 that approximates it; ≥ and ≤ were set here for values at or beyond the usual limits of such assays
HLA-B*08:01 = experiment: as above
HLA-B*46:01 = experiment: as above
HLA-A*02:01 [20] = experiment: IEDB peptide-MHC binding, purified MHC/competitive/fluorescence; filed as Kd, often an IC50 or EC50 that approximates it; ≥ and ≤ were set here for values at or beyond the usual limits of such assays
HLA-A*68:02 [21] = experiment: as above
HLA-B*57:01 [22] = experiment: as above; conditions: source organism: Giardia lamblia ATCC 50803
HLA-B*15:01 [23] = experiment: IEDB peptide-MHC binding, purified MHC/direct/fluorescence; filed as Kd, often an IC50 or EC50 that approximates it; ≥ and ≤ were set here for values at or beyond the usual limits of such assays; conditions: source organism: Burkholderia mallei
HLA-B*27:05 [24] = experiment: IEDB peptide-MHC binding, purified MHC/competitive/fluorescence; filed as Kd, often an IC50 or EC50 that approximates it; ≥ and ≤ were set here for values at or beyond the usual limits of such assays; conditions: source organism: Burkholderia mallei NCTC 10229
[25] = source organism: Orthomarburgvirus marburgense
[26] = source organism: Ravn virus - Ravn, Kenya, 1987
[27] = source organism: Human immunodeficiency virus 1
[28] = source organism: Giardia intestinalis
[29] = source organism: Giardia lamblia ATCC 50803
[30] = source organism: Burkholderia mallei
[31] = source organism: Burkholderia mallei ATCC 23344
[32] = source organism: Burkholderia mallei NCTC 10229

## VYSFDESSF
HLA-A*01:01 [1]; source organism: Cowpox virus
  pKd: ≤ 4.70
HLA-A*02:01 [2]; source organism: Cowpox virus
  pKd: ≤ 4.70
HLA-A*11:01 [3]; source organism: Cowpox virus
  pKd: ≤ 4.70
HLA-A*24:03
  pKd: 6.56
HLA-A*31:01; source organism: Cowpox virus
  pKd: ≤ 4.70
HLA-A*68:02 [4]; source organism: Cowpox virus
  pKd: ≤ 4.70
HLA-A*69:01 [5]; source organism: Cowpox virus
  pKd: ≤ 4.70
HLA-B*07:02; source organism: Cowpox virus
  pKd: ≤ 4.70
HLA-B*57:01 [6]; source organism: Cowpox virus
  pKd: ≤ 4.70
HLA-B*58:01; source organism: Cowpox virus
  pKd: ≤ 4.70
HLA-A*02:06; source organism: Variola virus
  pKd: ≤ 4.70
HLA-A*26:02 [7]; source organism: Variola virus
  pKd: 6.72
HLA-A*26:03 [8]
  pKd: 5.85
HLA-B*15:01 [9]; source organism: Variola virus
  pKd: 5.64
HLA-B*15:17 [10]; source organism: Variola virus
  pKd: 5.68
HLA-B*18:01 [11]; source organism: Variola virus
  pKd: 6.42

## STKAACPTM
HLA-A*26:01; source organism: West Nile virus
  pKd: 4.80
HLA-A*26:02 [12]; source organism: West Nile virus strain PTRoxo
  pKd: 5.98

## LEHGLYPQL
HLA-A*01:01 [1]; [25]
  pKd: ≤ 4.70
HLA-A*02:01 [2]; [25]
  pKd: ≤ 4.70
HLA-A*11:01 [3]; [25]
  pKd: ≤ 4.70
HLA-A*26:02 [12]; [26]
  pKd: ≤ 4.70
HLA-A*26:03 [13]; [26]
  pKd: ≤ 4.70
HLA-A*31:01; [25]
  pKd: ≤ 4.70
HLA-A*68:02 [4]; [25]
  pKd: ≤ 4.70
HLA-A*69:01 [5]; [25]
  pKd: ≤ 4.70
HLA-B*07:02; [25]
  pKd: ≤ 4.70
HLA-B*08:02; [26]
  pKd: ≤ 4.70
HLA-B*08:03; [26]
  pKd: ≤ 4.70
HLA-B*15:17 [14]
  pKd: ≤ 4.70
HLA-B*18:01 [15]; [25]
  pKd: 7.47
HLA-B*27:05 [16]; [25]
  pKd: ≤ 4.70
HLA-B*40:01; [25]
  pKd: 7.77
HLA-B*44:02
  pKd: ≤ 5.30
HLA-B*48:01; [25]
  pKd: 6.20
HLA-B*57:01 [6]; [25]
  pKd: ≤ 4.70
HLA-B*58:01; [25]
  pKd: ≤ 4.70
HLA-A*02:06; [25]
  pKd: ≤ 4.70
HLA-B*39:01
  pKd: 6.03

## RSLYNTVATLY
HLA-A*01:01 [17]
  pKd: ≤ 4.70
HLA-A*02:03
  pKd: ≤ 4.70
HLA-A*02:06; [27]
  pKd: ≤ 4.70
HLA-A*11:01 [18]
  pKd: ≤ 4.70
HLA-A*26:02 [7]; [27]
  pKd: ≤ 4.70
HLA-A*30:01
  pKd: ≤ 4.70
HLA-A*69:01 [19]
  pKd: 4.78
HLA-B*15:17 [10]; [27]
  pKd: 9.15
HLA-B*18:01 [11]; [27]
  pKd: 7.12

## RTMPLSRFT
HLA-A*01:01 [1]; [28]
  pKd: ≤ 4.70
HLA-A*03:01; [28]
  pKd: ≤ 4.70
HLA-A*11:01 [3]; [28]
  pKd: 5.57
HLA-A*26:01; [29]
  pKd: ≤ 4.70
HLA-A*26:03 [13]; [29]
  pKd: ≤ 4.70
HLA-A*31:01; [28]
  pKd: 4.90
HLA-A*69:01 [5]; [28]
  pKd: ≤ 4.70
HLA-B*07:02; [28]
  pKd: ≤ 4.70
HLA-B*08:01; [29]
  pKd: ≤ 4.70
HLA-B*08:02; [29]
  pKd: ≤ 4.70
HLA-B*08:03; [29]
  pKd: ≤ 4.70
HLA-B*18:01 [15]; [28]
  pKd: ≤ 4.70
HLA-B*27:05 [16]; [28]
  pKd: ≤ 4.70
HLA-B*40:01; [28]
  pKd: ≤ 4.70
HLA-B*46:01; [28]
  pKd: ≤ 4.70
HLA-B*48:01; [28]
  pKd: ≤ 4.70
HLA-B*58:01; [28]
  pKd: ≤ 4.70
HLA-A*02:01 [20]; [29]
  pKd: ≤ 4.70
HLA-A*68:02 [21]; [29]
  pKd: 5.34
HLA-B*15:01 [9]; [29]
  pKd: 4.86
HLA-B*15:17 [10]; [29]
  pKd: ≤ 4.70
HLA-B*57:01 [22]
  pKd: 6.43

## RRSLLAHVR
HLA-A*01:01 [1]; [30]
  pKd: ≤ 4.70
HLA-A*03:01; [30]
  pKd: 5.93
HLA-A*11:01 [3]; [30]
  pKd: 5.95
HLA-A*26:01; [31]
  pKd: ≤ 4.70
HLA-A*26:02 [12]; [31]
  pKd: ≤ 4.70
HLA-A*26:03 [13]; [31]
  pKd: ≤ 4.70
HLA-A*31:01; [30]
  pKd: 5.27
HLA-B*07:02; [30]
  pKd: ≤ 4.70
HLA-B*08:01; [31]
  pKd: ≤ 4.70
HLA-B*08:02; [31]
  pKd: ≤ 4.70
HLA-B*15:01 [23]
  pKd: ≤ 4.70
HLA-B*18:01 [15]; [30]
  pKd: ≤ 4.70
HLA-B*40:01; [30]
  pKd: ≤ 4.70
HLA-B*46:01; [30]
  pKd: ≤ 4.70
HLA-B*48:01; [30]
  pKd: ≤ 4.70
HLA-B*57:01 [6]; [30]
  pKd: ≤ 4.70
HLA-B*58:01; [30]
  pKd: ≤ 4.70
HLA-A*02:01 [20]; [32]
  pKd: 7.47
HLA-A*68:02 [21]; [32]
  pKd: 5.53
HLA-B*15:17 [10]; [32]
  pKd: ≤ 4.70
HLA-B*27:05 [24]
  pKd: 8.18

Reference: the Immune Epitope Database (IEDB)
